Target: T1, […] pentapeptide of the McpB (Aer2) chemoreceptor (Pseudomonas aeruginosa PAO1)
T1 construct: also called GWEEF; McpB pentapeptide; source: synthetic peptide (Biomedal S.L., Seville, Spain)
Experiment: ITC
Settings: both partners purified

B1: P. aeruginosa PAO1 CheB2 (PA0173) (enzyme)
chain: MPISVLVVDDSALIRSLLKEIIQADPELRLVGCAPDAFVARDLIKQHAPDVISLDVEMPRMDGLTFLDKLMKARPTPVLMISSLTERGSEATLRALELGAVDFIAKPRLGIAEGMQAYAEEIRAKLKTVARARLRRRAADAPAPPESAAPLLSTEKIIALGASTGGTEALKEVLLGLPAHSPGVVITQHMPPGFTRSFAERLDRLTRLSVSEARDGDRILPGHALVAPGDHHMEVQRSGANYVVRLNRQAQVNGHRPAVDVMFESLARCAGRNLLAGLLTGMGKDGARGLLAIRQAGGYTLAQDEATCVVYGMPREAVELGAAEDVLPLERIAAALLQQAARRGSGNRL
notes: source: E. coli BL21(DE3), purified (HisTrap HP)
Kd: 93 ± 15 µM

From PMC7698151, “Evidence for Pentapeptide-Dependent and Independent CheB Methylesterases” (International Journal of Molecular Sciences, 2020)
